Laboratory results from US5294543.

Target: fibrinogen receptor on platelets (Homo sapiens (Human)) (UniProt P08514)

Substance: chrysoptin
- IC50 of inhibition of platelet aggregation induced by 5 µM ADP: 16 nM
